Tests used:
Type in all cases: biochemical
[1] = HTP-analysis of supernatants pretreated with bovine serum (MUGal hydrolysis); conditions: activity of the variant/activity of Rd2BB (SEQ ID NO: 10), yeast culture supernatant
Procedure, shortened: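 Yeast INVSc1 culture supernatants containing secreted GLA variants were mixed with bovine serum (20:80) and held 1 h at 37° C. Serum-treated samples then reacted with MUGal (4 mM stock) in citrate/McIlvaine buffer (pH 4.3/4.8) for 180 min at 37° C., were quenched with sodium carbonate, and read by fluorescence (Ex 355, Em 448 nm).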

[2] = HTP-analysis of supernatants pretreated with base (MUGal hydrolysis); conditions: challenge at pH 7.6; activity of the variant/activity of Rd2BB (SEQ ID NO: 10); yeast culture supernatant
Procedure, shortened: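 GLA variants secreted from yeast INVSc1; culture supernatants pre-incubated with McIlvaine buffer pH 7.0–8.2 or 200 mM bicarbonate pH 9.1–9.7 at 37° C. for 1–18 h. Residual activity: MUGal (4 mM stock) hydrolysis at pH 4.3–4.8, 37° C., 30–180 min, carbonate quench; fluorescence Ex 355/Em 448 nm.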

[3] = HTP-analysis of yeast culture supernatants, no challenge (MUGal hydrolysis); conditions: activity of the variant/activity of Rd2BB (SEQ ID NO: 10), yeast culture supernatant
Procedure, shortened: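 Activity read as 4-methylumbelliferyl α-D-galactopyranoside hydrolysis: fluorescence (355/448 nm) after sodium carbonate stop, following 30-180 min at 37° C with 2 mM MUGal stock at pH 4.6–4.8. Enzyme source is unchallenged culture supernatant of INVSc1 yeast expressing GLA variants, grown 66-84 h at 30° C.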

[4] = HTP-analysis of supernatants pretreated with acid (MUGal hydrolysis); conditions: challenge at pH 4.2; activity of the variant/activity of Rd2BB (SEQ ID NO: 10); yeast culture supernatant
Procedure, shortened: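 Fluorescence of MUGal hydrolysis (Ex. 355 nm, Em. 448 nm) is read after sodium carbonate quench. The enzyme source is INVSc1 yeast culture supernatant, first exposed to pH 3.3-4.3 McIlvaine buffer at 37° C. for 1-3 h, then reacted at pH 4.8 for 30-180 minutes.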

Row | Molecule | Relative Activity of GLA Variants After Challenge with Serum [1] | Relative Activity of GLA Variants After Challenge at pH 7.6 [2] | Relative Activity of GLA Variants After No Challenge (NC) [3] | Relative Activity of GLA Variants After Challenge at pH 4.2 [4]
1 | 291 (protein, Synthetic Polypeptide sequence of Variant No. 291 of mature Human GLA) LDNGLARTPTMGWLHWERFMCNLDCQEEPDSCISEKLFMEMAERMVSEGWKDAGYEYLCIDDCWMAPQRDSEGRLQADPQRFPHGIRQLANYVHSKGLKFGIYADVGNKTCAGFPGSFGYYDIDAQTFADWGVDLLKFDGCYCDSLENLADGYKHMSLALNRTGRSIVYSCEWPLYMWPFQKPNYTEIRQYCNHWRNFADIDDSWASIKSILDWTSFNQERIVDVAGPGGWNDPDMLVIGNFGLSWNQQVTQMALWAIMAAPLFMSNDLRHISPQAKALLQDKDVIAINQDPLGKQGYQLRQGDNFEVWERPLSGLAWAVAMINRQEIGGPRSYTIAVASLGKGVACNPACFITQLLPVKRKLGLYEWTSRLRSHINPTGTVLLQLENTMQMSLKDLL | + (+ = 0.5 to 1.5 relative activity over Rd2BB (SEQ ID NO: 10)) | + (+ = 0.5 to 1.5 relative activity over Rd2BB (SEQ ID NO: 10)) | + (+ = 0.5 to 1.5 relative activity over Rd2BB (SEQ ID NO: 10)) | + (+ = 0.5 to 1.5 relative activity over Rd2BB (SEQ ID NO: 10))
2 | 295 (protein, Synthetic Polypeptide sequence of Variant No. 295 of mature Human GLA) LDNGLARTPTMGWLHWERFMCNLDCQEEPDSCISEKLFMEMAERMVSEGWKDAGYEYLCIDDCWMAPQRDSEGRLQADPQRFPHGIRQLANYVHSKGLKFGIYADVGNKTCAGFPGSFGYYDIDAQTFADWGVDLLKFDGCYCDSLENLADGYKHMSLALNRTGRSIVYSCEWPLYMWPFQKPNYTEIRQYCNHWRNFADIDDSWASVKSILDWTSFNQETIVDVAGPGGWNDPDMLVIGNFGLSWDQQVTQMALWAIMAAPLFMSNDLRHISPQAKALLQDKDVIAINQDPLGKQGYQLRKGDNFEVWERPLSGLAWAVAIINRQEIGGPRSYTIAVASLGKGVACNPACFITQLLPVKRKLGLYEWTSRLKSHVNPTGTVLLQLENTMQMSLKDLL | +++ (+++ = >2.5 relative activity over Rd2BB (SEQ ID NO: 10)) | +++ (+++ = >2.5 relative activity over Rd2BB (SEQ ID NO: 10)) | +++ (+++ = >2.5 relative activity over Rd2BB (SEQ ID NO: 10)) | +++ (+++ = >2.5 relative activity over Rd2BB (SEQ ID NO: 10))
3 | 294 (protein, Synthetic Polypeptide sequence of Variant No. 294 of mature Human GLA) LDNGLARTPTMGWLHWERFMCNLDCQEEPDSCISEKLFMEMAERMVSEGWKDAGYEYLCIDDCWMAPQRDSEGRLQADPQRFPHGIRQLANYVHSKGLKFGIYADVGNKTCAGFPGSFGYYDIDAQTFADWGVDLLKFDGCYCDSLENLADGYKHMSLALNRTGRSIVYSCEWPLYMWPFQKPNYTEIRQYCNHWRNFADIDDSWASVKSILDWTSFNQETIVDVAGPGGWNDPDMLVIGNFGLSWDQQVTQMALWAIMAAPLFMSNDLRHISPQAKALLQDKDVIAINQDPLGKQGYQLRQGDNFEVWERPLSGLAWAVAVINRQEIGGPRSYTIAVASLGKGVACNPACFITQLLPVKRKLGFYEWTSRLRSHVNPTGTVLLQLENTMQMSLKDLL | + (+ = 0.5 to 1.5 relative activity over Rd2BB (SEQ ID NO: 10)) | +++ (+++ = >2.5 relative activity over Rd2BB (SEQ ID NO: 10)) | ++ (++ = 1.5 to 2.5 relative activity over Rd2BB (SEQ ID NO: 10)) | ++ (++ = 1.5 to 2.5 relative activity over Rd2BB (SEQ ID NO: 10))
4 | 293 (protein, Synthetic Polypeptide sequence of Variant No. 293 of mature Human GLA) LDNGLARTPTMGWLHWERFMCNLDCQEEPDSCISEKLFMEMAERMVSEGWKDAGYEYLCIDDCWMAPQRDSEGRLQADPQRFPHGIRQLANYVHSKGLKFGIYADVGNKTCAGFPGSFGYYDIDAQTFADWGVDLLKFDGCYCDSLENLADGYKHMSLALNRTGRSIVYSCEWPLYMWPFQKPNYTEIRQYCNHWRNFADIDDSWASVKSILDWTSFNQEKIVDVAGPGGWNDPDMLVIGNFGLSWDQQVTQMALWAIMAAPLFMSNDLRHISPQAKALLQDKDVIAINQDPLGKQGYQLRKGDNFEVWERPLSGLAWAVAVINRQEIGGPRSYTIAVASLGKGVACNPACFITQLLPVKRKLGLYEWTSRLRSHVNPTGTVLLQLENTMQMSLKDLL | + (+ = 0.5 to 1.5 relative activity over Rd2BB (SEQ ID NO: 10)) | ++ (++ = 1.5 to 2.5 relative activity over Rd2BB (SEQ ID NO: 10)) | ++ (++ = 1.5 to 2.5 relative activity over Rd2BB (SEQ ID NO: 10)) | + (+ = 0.5 to 1.5 relative activity over Rd2BB (SEQ ID NO: 10))
5 | 234 (protein, Synthetic Polypeptide sequence of Variant No. 234 of mature Human GLA) LDNGLARTPTMGWLHWERFMCNLDCQEEPDSCISEKLFMEMAELMVSEGWKDAGYEYLCIDDCWMAPQRDSEGRLQADPQRFPHGIRQLANYVHSKGLKLGIYADVGNKTCAGFPGSFGYYDIDAQTFADWGVDLLKFDGCYCDSLENLADGYKHMSLALNRTGRSIVYSCEWPLYMWPFQKPNYTEIRQYCNHWRNFADIDDSWASIKSILDWTSRNQERIVDVAGPGGWNDPDMLVIGNFGLSWDQQVTQMALWAIMAAPLFMSNDLRHISPQAKALLQDKDVIAINQDPLGKQGYQLRKGDNFEVWERPLSGLAWAVAMINRQEIGGPRSYTIAVASLGKGVACNPGCFITQLLPVKRKLGFYDWDSRLRSHINPTGTVLLQLENTMQMSLKDLL | +++ (+++ = >2.5 relative activity over Rd2BB (SEQ ID NO: 10)) | +++ (+++ = >2.5 relative activity over Rd2BB (SEQ ID NO: 10)) | +++ (+++ = >2.5 relative activity over Rd2BB (SEQ ID NO: 10)) | +++ (+++ = >2.5 relative activity over Rd2BB (SEQ ID NO: 10))
6 | 233 (protein, Synthetic Polypeptide sequence of Variant No. 233 of mature Human GLA) LDNGLARTPTMGWLHWERFMCNLDCQEEPDSCISEKLFMEMAELMVSEGWKDAGYEYLCIDDCWMAPQRDSEGRLQADPQRFPHGIRQLANYVHSKGLKLGIYADVGNKTCAGFPGSFGYYDIDAQTFADWGVDLLKFDGCYCDSLENLADGYKHMSLALNRTGRSIVYSCEWPLYMWPFQKPNYTEIRQYCNHWRNFADIDDSWASIKSILDWTSRNQERIVDVAGPGGWNDPDMLVIGNFGLSWDQQVTQMALWAIMAAPLFMSNDLRHISPQAKALLQDKDVIAINQDPLGKQGYQLRQGDNFEVWERPLSGDAWAVAMINRQEIGGPRSYTIAVASLGKGVACNPGCFITQLLPVKRKLGFYDWDSRLRSHINPTGTVLLQLENTMQMSLKDLL | +++ (+++ = >2.5 relative activity over Rd2BB (SEQ ID NO: 10)) | +++ (+++ = >2.5 relative activity over Rd2BB (SEQ ID NO: 10)) | +++ (+++ = >2.5 relative activity over Rd2BB (SEQ ID NO: 10)) | +++ (+++ = >2.5 relative activity over Rd2BB (SEQ ID NO: 10))
7 | 292 (protein, Synthetic Polypeptide sequence of Variant No. 292 of mature Human GLA) LDNGLARTPTMGWLHWERFMCNLDCQEEPDSCISEKLFMEMAERMVSEGWKDAGYEYLCIDDCWMAPQRDSEGRLQADPQRFPHGIRQLANYVHSKGLKFGIYADVGNKTCAGFPGSFGYYDIDAQTFADWGVDLLKFDGCYCDSLENLADGYKHMSLALNRTGRSIVYSCEWPLYMWPFQKPNYTEIRQYCNHWRNFADIDDSWASVKSILDWTSFNHERIVDVAGPGGWNDPDMLVIGNFGLSWDQQVTQMALWAIMAAPLFMSNDLRHISPQAKALLQDKDVIAINQDPLGKQGYQLRKGDNFEVWERPLSGLAWAVAVINRQEIGGPRSYTIAVASLGKGVACNPACFITQLLPVKRKLGFYEWTSRLKSHVNPTGTVLLQLENTMQMSLKDLL | ++ (++ = 1.5 to 2.5 relative activity over Rd2BB (SEQ ID NO: 10)) | +++ (+++ = >2.5 relative activity over Rd2BB (SEQ ID NO: 10)) | +++ (+++ = >2.5 relative activity over Rd2BB (SEQ ID NO: 10)) | ++ (++ = 1.5 to 2.5 relative activity over Rd2BB (SEQ ID NO: 10))
